Measurements reported in paper PMC9482650, “Quantitative fragmentomics allow affinity mapping of interactomes” (Nature Communications, 2022).

Tests used:
Test in all cases: holdup assay
Parameters in all cases: key: below the threshold = too weak to quantify, mostly under pKd 3.1 to 4
APBA2_1, Q99767 = target: T1, APBA2_1, Q99767
T1 sequence (Q99767 563-664, limits assumed, looked up): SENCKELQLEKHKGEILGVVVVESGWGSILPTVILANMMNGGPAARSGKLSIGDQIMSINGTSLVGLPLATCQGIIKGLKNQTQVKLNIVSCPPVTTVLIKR

APBA3_1, O96018 = target: T2, APBA3_1, O96018
T2 sequence (O96018 389-490, limits assumed, looked up): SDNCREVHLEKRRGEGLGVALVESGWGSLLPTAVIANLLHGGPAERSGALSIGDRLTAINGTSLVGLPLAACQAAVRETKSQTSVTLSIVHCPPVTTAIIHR

CASK, O14936 = target: CASK, O14936
CASK, O14936, sequence (O14936 487-570): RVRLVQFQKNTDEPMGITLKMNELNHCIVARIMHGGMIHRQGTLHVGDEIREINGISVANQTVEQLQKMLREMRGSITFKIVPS

DFNB31_2, Q9P202 = target: T3, DFNB31_2, Q9P202
T3 sequence (Q9P202 274-371, limits assumed, looked up): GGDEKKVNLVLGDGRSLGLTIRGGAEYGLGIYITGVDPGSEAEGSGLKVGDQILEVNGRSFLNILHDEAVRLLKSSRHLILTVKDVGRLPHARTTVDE

DLG1_1, Q12959 = target: DLG1_1, Q12959
DLG1_2, Q12959 = target: DLG1_2, Q12959
DLG1_3, Q12959 = target: DLG1_3, Q12959
GRIP1_7, Q9Y3R0 = target: T4, GRIP1_7, Q9Y3R0
T4 sequence (Q9Y3R0 999-1096, limits assumed, looked up): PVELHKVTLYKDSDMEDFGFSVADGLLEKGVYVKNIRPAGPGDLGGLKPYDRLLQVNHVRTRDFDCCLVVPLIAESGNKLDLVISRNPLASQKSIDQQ

GRIP2_7, Q9C0E4 = target: GRIP2_7, Q9C0E4
GRIP2_7, Q9C0E4, sequence (Q9C0E4 934-1023): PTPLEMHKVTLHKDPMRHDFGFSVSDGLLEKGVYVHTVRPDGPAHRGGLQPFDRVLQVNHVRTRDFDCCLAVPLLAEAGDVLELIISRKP

Inadl_5, Q8NI35 = target: Inadl_5, Q8NI35
Inadl_5, Q8NI35, sequence (Q8NI35 673-780): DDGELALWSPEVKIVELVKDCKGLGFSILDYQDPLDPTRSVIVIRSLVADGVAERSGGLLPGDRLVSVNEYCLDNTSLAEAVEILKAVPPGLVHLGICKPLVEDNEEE

LNX1_3, Q8TBB1 = target: LNX1_3, Q8TBB1
LNX1_3, Q8TBB1, sequence (Q8TBB1 500-596): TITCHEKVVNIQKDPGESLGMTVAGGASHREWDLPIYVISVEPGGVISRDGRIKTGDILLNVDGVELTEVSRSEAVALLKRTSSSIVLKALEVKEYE

LRRC7, Q96NW7 = target: T5, LRRC7, Q96NW7
T5 sequence (Q96NW7 1440-1537, limits assumed, looked up): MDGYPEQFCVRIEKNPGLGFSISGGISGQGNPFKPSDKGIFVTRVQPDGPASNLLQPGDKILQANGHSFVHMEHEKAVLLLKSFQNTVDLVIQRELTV

MAGI1_2, Q96QZ7 = target: MAGI1_2, Q96QZ7
MAGI1_2, Q96QZ7, sequence (Q96QZ7 456-580): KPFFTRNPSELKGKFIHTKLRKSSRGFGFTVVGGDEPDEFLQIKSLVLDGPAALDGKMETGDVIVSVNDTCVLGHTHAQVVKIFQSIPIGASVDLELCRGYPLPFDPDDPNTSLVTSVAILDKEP

MAGI2_2, Q86UL8 = target: MAGI2_2, Q86UL8
MAGI2_2, Q86UL8, sequence (Q86UL8 410-522): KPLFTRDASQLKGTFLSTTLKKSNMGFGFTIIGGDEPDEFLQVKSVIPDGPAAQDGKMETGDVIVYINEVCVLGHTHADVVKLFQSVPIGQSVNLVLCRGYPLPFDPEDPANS

MAGI2_4, Q86UL8 = target: MAGI2_4, Q86UL8
MAGI2_4, Q86UL8, sequence (Q86UL8 772-865): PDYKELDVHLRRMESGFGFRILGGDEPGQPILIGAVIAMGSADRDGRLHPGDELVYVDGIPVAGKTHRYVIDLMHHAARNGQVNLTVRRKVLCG

MPDZ_10, O75970 = target: T6, MPDZ_10, O75970
T6 sequence (O75970 1624-1722, limits assumed, looked up): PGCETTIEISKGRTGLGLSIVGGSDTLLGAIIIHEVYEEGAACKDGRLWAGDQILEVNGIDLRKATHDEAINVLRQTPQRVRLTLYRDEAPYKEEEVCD

MPDZ_12, O75970 = target: T7, MPDZ_12, O75970
T7 sequence (O75970 1857-1958, limits assumed, looked up): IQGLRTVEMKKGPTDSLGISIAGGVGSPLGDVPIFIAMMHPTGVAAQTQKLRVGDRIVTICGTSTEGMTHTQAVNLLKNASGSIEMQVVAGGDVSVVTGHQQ

NHERF3_1, Q5T2W1 = target: T8, NHERF3_1, Q5T2W1
T8 sequence (Q5T2W1 4-100, limits assumed, looked up): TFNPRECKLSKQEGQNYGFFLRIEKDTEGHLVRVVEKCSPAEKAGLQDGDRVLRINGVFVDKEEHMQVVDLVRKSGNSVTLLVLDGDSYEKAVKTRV

NHERF4_4, Q86UT5 = target: NHERF4_4, Q86UT5
NHERF4_4, Q86UT5, sequence (Q86UT5 464-550): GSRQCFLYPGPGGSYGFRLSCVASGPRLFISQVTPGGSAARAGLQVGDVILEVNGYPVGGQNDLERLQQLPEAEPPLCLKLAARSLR

PDZRN4_1, Q6ZMN7 = target: PDZRN4_1, Q6ZMN7
PDZRN4_1, Q6ZMN7, sequence (Q6ZMN7 213-318): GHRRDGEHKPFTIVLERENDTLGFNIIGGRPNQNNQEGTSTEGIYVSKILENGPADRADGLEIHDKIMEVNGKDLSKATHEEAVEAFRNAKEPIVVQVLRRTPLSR

PTPN13_1, Q12923 = target: T9, PTPN13_1, Q12923
T9 sequence (Q12923 1088-1188, limits assumed, looked up): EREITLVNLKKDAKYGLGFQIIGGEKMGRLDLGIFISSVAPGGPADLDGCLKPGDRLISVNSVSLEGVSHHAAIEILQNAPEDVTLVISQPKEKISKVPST

RHPN1, Q8TCX5 = target: T10, RHPN1, Q8TCX5
T10 sequence (Q8TCX5 508-602, limits assumed, looked up): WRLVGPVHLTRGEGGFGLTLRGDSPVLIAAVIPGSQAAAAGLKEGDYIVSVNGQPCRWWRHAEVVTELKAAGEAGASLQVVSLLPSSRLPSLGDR

SNTA1, Q13424 = target: T11, SNTA1, Q13424
T11 sequence (Q13424 82-180, limits assumed, looked up): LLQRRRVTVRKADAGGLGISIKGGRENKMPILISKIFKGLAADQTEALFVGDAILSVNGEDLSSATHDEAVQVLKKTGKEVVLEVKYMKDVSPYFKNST

SYNJ2BP, P57105 = target: T12, SYNJ2BP, P57105
T12 sequence (P57105 8-110, limits assumed, looked up): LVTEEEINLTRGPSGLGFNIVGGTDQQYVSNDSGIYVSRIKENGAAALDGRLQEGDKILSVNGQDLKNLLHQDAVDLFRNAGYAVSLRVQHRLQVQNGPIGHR

TJP3_3, O95049 = target: T13, TJP3_3, O95049
T13 sequence (O95049 375-456, limits assumed, looked up): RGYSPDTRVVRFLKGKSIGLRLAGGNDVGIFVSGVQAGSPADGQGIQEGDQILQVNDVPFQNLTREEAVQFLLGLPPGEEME

[1] = plain residues with an end cap or a label only (N-terminal biotin on a linker: ado-ado)
[2] = plain residues with an end cap or a label only (N-terminal biotin on a linker: ahx)

B1: KCNJ4, P48050 (peptide)
chain: NISYRRESAI
For B1, the pKd (APBA2_1, Q99767; [1]) was “below the threshold”, the pKd (APBA3_1, O96018; [1]) was “below the threshold” and the pKd (CASK, O14936; [1]) was “below the threshold”. The pKd (DFNB31_2, Q9P202; [1]) was “below the threshold”, the pKd (DLG1_1, Q12959; [1]) was 3.54 and the pKd (DLG1_2, Q12959; [1]) was 4.48. The pKd (DLG1_3, Q12959; [1]) was 3.91, the pKd (GRIP1_7, Q9Y3R0; [1]) was “below the threshold” and the pKd (GRIP2_7, Q9C0E4; [1]) was “below the threshold”. The pKd (Inadl_5, Q8NI35; [1]) was “below the threshold”, the pKd (LNX1_3, Q8TBB1; [1]) was “below the threshold” and the pKd (LRRC7, Q96NW7; [1]) was “below the threshold”. For the same binder, the pKd (MAGI1_2, Q96QZ7; [1]) was 3.89, the pKd (MAGI2_2, Q86UL8; [1]) was 4.74 and the pKd (MAGI2_4, Q86UL8; [1]) was “below the threshold”. The pKd (MPDZ_10, O75970; [1]) was “below the threshold”, the pKd (MPDZ_12, O75970; [1]) was “below the threshold” and the pKd (NHERF3_1, Q5T2W1; [1]) was 3.75. The pKd (NHERF4_4, Q86UT5; [1]) was “below the threshold”, the pKd (PDZRN4_1, Q6ZMN7; [1]) was 4.25 and the pKd (PTPN13_1, Q12923; [1]) was “below the threshold”. The pKd (RHPN1, Q8TCX5; [1]) was “below the threshold”, the pKd (SNTA1, Q13424; [1]) was “below the threshold” and the pKd (SYNJ2BP, P57105; [1]) was 4.84. For the same binder, the pKd (TJP3_3, O95049; [1]) was “below the threshold”.

B2: KCNJ18, B7U540 (peptide)
chain: QRPYRRGSEI
In the case of B2, the pKd (APBA2_1, Q99767; [1]) is reported as “below the threshold”, the pKd (APBA3_1, O96018; [1]) is reported as “below the threshold” and the pKd (CASK, O14936; [1]) is reported as “below the threshold”. The pKd (DFNB31_2, Q9P202; [1]) was “below the threshold”, the pKd (DLG1_1, Q12959; [1]) was “below the threshold” and the pKd (DLG1_2, Q12959; [1]) was 3.51. For the same binder, the pKd (DLG1_3, Q12959; [1]) was “below the threshold”, the pKd (GRIP1_7, Q9Y3R0; [1]) was “below the threshold” and the pKd (GRIP2_7, Q9C0E4; [1]) was “below the threshold”. For the same binder, the pKd (Inadl_5, Q8NI35; [1]) was “below the threshold”, the pKd (LNX1_3, Q8TBB1; [1]) was “below the threshold” and the pKd (LRRC7, Q96NW7; [1]) was “below the threshold”. The pKd (MAGI1_2, Q96QZ7; [1]) was “below the threshold”, the pKd (MAGI2_2, Q86UL8; [1]) was 3.8 and the pKd (MAGI2_4, Q86UL8; [1]) was “below the threshold”. The pKd (MPDZ_10, O75970; [1]) was “below the threshold”, the pKd (MPDZ_12, O75970; [1]) was 3.56 and the pKd (NHERF3_1, Q5T2W1; [1]) was “below the threshold”. The pKd (NHERF4_4, Q86UT5; [1]) was “below the threshold”, the pKd (PDZRN4_1, Q6ZMN7; [1]) was “below the threshold” and the pKd (PTPN13_1, Q12923; [1]) was “below the threshold”. The pKd (RHPN1, Q8TCX5; [1]) was 3.75, the pKd (SNTA1, Q13424; [1]) was “below the threshold” and the pKd (SYNJ2BP, P57105; [1]) was 4.91. For the same binder, the pKd (TJP3_3, O95049; [1]) was “below the threshold”.

B3: ABCA1, O95477 (peptide)
chain: QDEKVKESYV
With B3 the pKd (APBA2_1, Q99767; [2]) was “below the threshold”, the pKd (APBA3_1, O96018; [2]) was “below the threshold” and the pKd (CASK, O14936; [2]) was “below the threshold”. For the same binder, the pKd (DFNB31_2, Q9P202; [2]) was 4.79, the pKd (DLG1_1, Q12959; [2]) was 4.6 and the pKd (DLG1_2, Q12959; [2]) was 5.09. For the same binder, the pKd (DLG1_3, Q12959; [2]) was 3.76, the pKd (GRIP1_7, Q9Y3R0; [2]) was 3.49 and the pKd (GRIP2_7, Q9C0E4; [2]) was 3.59. For the same binder, the pKd (Inadl_5, Q8NI35; [2]) was 3.73, the pKd (LNX1_3, Q8TBB1; [2]) was “below the threshold” and the pKd (LRRC7, Q96NW7; [2]) was 4.13. It also gave a pKd (MAGI1_2, Q96QZ7; [2]) of 4.03, a pKd (MAGI2_2, Q86UL8; [2]) of 4.52 and a pKd (MAGI2_4, Q86UL8; [2]) of 4.04. The pKd (MPDZ_10, O75970; [2]) was 4.29, the pKd (MPDZ_12, O75970; [2]) was “below the threshold” and the pKd (NHERF3_1, Q5T2W1; [2]) was 5.12. The pKd (NHERF4_4, Q86UT5; [2]) was “below the threshold”, the pKd (PDZRN4_1, Q6ZMN7; [2]) was 3.95 and the pKd (PTPN13_1, Q12923; [2]) was “below the threshold”. The pKd (RHPN1, Q8TCX5; [2]) was 4.9, the pKd (SNTA1, Q13424; [2]) was 5.9 and the pKd (SYNJ2BP, P57105; [2]) was 5.22. The pKd (TJP3_3, O95049; [2]) was “below the threshold”.
